Data on two molecules can be found in patent US20210017269A1 (GlaxoSmithKline, published 2021).

The target of experiment [1] is T1, human IL-5 (recombinant) (human, UniProt P05113 20-134). The experiment can be described thus: cell-based or functional assay.
The target in experiment [2] is T1, human IL-5 (recombinant). Put plainly: SPR Biacore 4000, 25 °C, antibody captured on protein A, human IL-5 as analyte.
Experiment [3] deals with T2, human neonatal Fc receptor (FcRn) (human, UniProt P55899 24-297; P61769 21-119, limits assumed).
T2 construct: Recombinant human FcRn; also called human FcRn; recombinant human neonatal receptor
Put plainly: SPR Biacore T200, 37 °C, pH 6.0, antibody captured on immobilised IL-5, FcRn as analyte. The method, then: (§1) Table 17 legend/description: Comparison of binding affinity of 28Y042-7F11-1 and mepolizumab for human FcRn at pH 6.0 and pH 7.4.
(§2) The binding affinity of 28Y042-7F11-1 and mepolizumab to human FcRn at pH 6.0 and pH 7.4 was assessed using a BIACORE T200 instrument at 37° C. Human recombinant IL-5 was diluted in acetate buffer pH 5.0 and immobilised to a level of 535 RU by amine coupling on to a CMS chip (GE, BR100530). 28Y042-7F11-1 or mepolizumab were captured by flowing (5 μl/min) a 100 nM solution of either mAb in HBS-EP (Teknova, H8022) buffer for 24 seconds over the chip surface. Following capture of the antibody via the immobilised IL-5, cycles of varying concentrations (0.5 μM to 32 μM) of human FcRn were flowed over the chip surface at 5 μ1/min for 120 seconds contact time followed by 80 seconds dissociation for each cycle. At the completion of each cycle, the chip surface was regenerated using 10 mM Glycine pH 1.5 for 5 seconds at 50 μ1/min followed by 10mM NaOH for 5 seconds at 50 μl/min. FcRn cycles were performed for each concentration at pH 6.0 (HBS-EP+, Teknova, Cat: H8022, pH 6.0) and pH 7.4 (HBS-EP). A molecular weight of 42929 Da for human FcRn was used in the calculations.

The target of experiment [4] is T1, human IL-5 (recombinant). The experiment can be described thus: SPR Biacore T200, 37 °C.
Experiment [5] concerns the target T3, cynomolgus IL-5 (cynomolgus).
T3 construct: also called cyno IL-5
Put plainly: SPR Biacore T200, 37 °C.

Experiment [6] deals with T2, human neonatal Fc receptor (FcRn). Put plainly: ProteOn SPR, human FcRn, pH 6.0.
For experiment [7] the target is unchanged. Put plainly: SPR Biacore T200, 37 °C, pH 6.0. As for the experimental part: as §1, §2
Experiment [8] shares this target. Put plainly: ProteOn SPR, human FcRn, pH 6.0. The source holds these as a separate data set.
Experiment [9] has the same target. The experiment can be described thus: ProteOn SPR, human FcRn, pH 7.4.
The target of experiment [10] is T1, human IL-5 (recombinant). The experiment can be described thus: KinExA solution phase affinity, 25 °C. The method, then:
Kinetic analyses were performed to compare 28Y042-7F11-1, mepolizumab, and GSK3559090A (a comparator IgG1 anti-IL-5 mAb molecule based). Due to the high affinity of 28Y042-7F11-1, it was not possible to accurately determine the dissociation rate by Biacore 4000 at 25° C.; therefore KINEXA analysis was used to calculate an accurate affinity for 28Y042-7F11-1 binding to human IL-5 at 25° C.
Solution phase affinity measurements were made using Sapidyne's KINEXA 3200 instrument. The method relied on the detection of free antibody at equilibrium in a titrated series of antigen concentrations. For detection, a bead matrix was created using NHS-activated SEPHEROSE beads (GE Healthcare, 17-0906-01) coated with human IL-5. For affinity determination, a fixed concentration of antibody was incubated with a dilution series of human IL-5 concentrations and binding was allowed to reach equilibrium before the samples were run on the KINEXA 3200 instrument. Each solution was passed over an aliquot of the antigen beads where free antibody bound to the antigen coated beads and was detected using an anti-human IgG antibody (DYLIGHT 649-AFFINIPURE F(ab′)2 fragment goat anti-human IgG; Jackoson Immunoresearch, 109-496-170), with fresh antigen beads used to measure each sample.

Experiment [11] has as its target T4, human complement component C1q (human, UniProt P02745 23-245; P02746 28-253; P02747 29-245).
T4 construct: C1q from Sigma (C1740); also called human recombinant soluble complement C1q
Put plainly: ProteOn XPR36 SPR, antibody immobilised, C1q as analyte, equilibrium model. As for the experimental part: Binding of 28Y042-7F11-1 to human recombinant soluble complement C1q was assessed using the PROTEOn XPR36 (BioRad™) biosensor instrument. A control antibody containing the YTE change to its Fc region was included as a control.
The antibodies to be tested were immobilised on a GLC chip (Bio-Rad, 176-5011) by primary amine coupling (GE Healthcare, BR-1000-50). Recombinant C1q (Sigma, C1740) was passed over the immobilised antibodies at 512 nM, 128 nM, 32 nM, 8 nM, 2 nM and 0 nM (i.e., buffer alone) and a blank activated and deactivated flow cell was used to double reference binding curves. The running buffer for binding analysis was HBS-EP (pH7.4, Teknova, H8022) with 10 mM CaCl₂. Data were fitted to the equilibrium model, inherent to the PROTEON XPR36 (BioRad™) analysis software using a global R-max value.

Experiment [12] has as its target T2, human neonatal Fc receptor (FcRn). The experiment can be described thus: SPR Biacore T200, 37 °C, pH 7.4, antibody captured on immobilised IL-5, FcRn as analyte. As for the experimental part:
as §1, §2

T4 sequence (P02745 23-245 limits assumed, chain 1 of 3): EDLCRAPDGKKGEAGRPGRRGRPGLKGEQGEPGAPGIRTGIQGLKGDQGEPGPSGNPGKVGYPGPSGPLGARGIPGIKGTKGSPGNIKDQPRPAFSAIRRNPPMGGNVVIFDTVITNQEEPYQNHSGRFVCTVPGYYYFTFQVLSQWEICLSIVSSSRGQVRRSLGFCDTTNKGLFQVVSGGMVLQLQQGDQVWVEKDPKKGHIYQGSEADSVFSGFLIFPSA
T4 sequence (P02746 28-253 limits assumed, chain 2 of 3): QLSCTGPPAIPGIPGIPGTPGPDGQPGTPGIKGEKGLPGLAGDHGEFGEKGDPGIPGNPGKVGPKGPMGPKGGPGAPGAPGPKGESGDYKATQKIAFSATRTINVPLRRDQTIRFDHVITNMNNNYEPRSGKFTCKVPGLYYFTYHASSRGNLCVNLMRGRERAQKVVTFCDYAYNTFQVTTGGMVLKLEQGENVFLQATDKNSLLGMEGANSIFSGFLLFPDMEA
T4 sequence (P02747 29-245 limits assumed, chain 3 of 3): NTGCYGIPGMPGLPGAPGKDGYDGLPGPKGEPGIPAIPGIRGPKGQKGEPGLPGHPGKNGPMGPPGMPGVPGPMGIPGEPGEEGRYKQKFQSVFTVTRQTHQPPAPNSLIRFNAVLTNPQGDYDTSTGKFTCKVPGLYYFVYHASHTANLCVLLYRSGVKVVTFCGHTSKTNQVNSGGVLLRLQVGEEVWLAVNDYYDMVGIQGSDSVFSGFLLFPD

B1: mepolizumab (antibody)
chain 1: not shown
chain 2: not shown
Take B1: the “IC50 of inhibition of human IL-5 induced TF-1 cell proliferation” value in experiment [1] was 0.105 nM. The Kd in [2] worked out at 0.123 nM; in experiment [3], 2080 nM.

B2: 28Y042-7F11-1 (antibody, human IgG1, kappa)
heavy: QVTLRESGPALVKPTQTLTLTCTVSGFSLTGSSVHWVRQPPGKGLEWLGVIWASGGTDYNSALMSRLSISKDTSRNQVVLTMTNMDPVDTATYYCARDPPSGLLRLDYWGRGTLVTVSSASTKGPSVFPLAPSSKSTSGGTAALGCLVKDYFPEPVTVSWNSGALTSGVHTFPAVLQSSGLYSLSSVVTVPSSSLGTQTYICNVNHKPSNTKVDKRVEPKSCDKTHTCPPCPAPELLGGPSVFLFPPKPKDTLYITREPEVTCVVVDVSHEDPEVKFNWYVDGVEVHNAKTKPREEQYNSTYRVVSVLTVLHQDWLNGKEYKCKVSNKALPAPIEKTISKAKGQPREPQVYTLPPSREEMTKNQVSLTCLVKGFYPSDIAVEWESNGQPENNYKTTPPVLDSDGSFFLYSKLTVDKSRWQQGNVFSCSVMHEALHNHYTQKSLSLSPGK
light: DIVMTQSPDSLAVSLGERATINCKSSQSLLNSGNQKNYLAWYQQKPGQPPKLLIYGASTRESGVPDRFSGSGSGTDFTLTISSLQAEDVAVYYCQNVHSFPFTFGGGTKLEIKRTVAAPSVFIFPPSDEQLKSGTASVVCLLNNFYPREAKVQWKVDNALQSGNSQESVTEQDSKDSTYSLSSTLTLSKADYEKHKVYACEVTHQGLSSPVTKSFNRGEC
notes: Recombinant humanized monoclonal antibody, IgG1 kappa, two heavy and two light chains; also called GSK3511294
As to B2, the “IC50 in the TF-1 cell assay after thermal stress (1 week at 40 °C in acetate or phosphate buffer)” value in experiment [1] lay within 0.004 to 0.005 nM. Besides, the “IC50 of inhibition of human IL-5 induced TF-1 cell proliferation” value in [1] is 0.004 nM. In addition, the “fold improvement in TF-1 cell assay potency compared to mepolizumab” value in [1] is approximately 30 fold. The Kd turned out to be 0.0391 nM in experiment [4]; 0.0239 nM in experiment [5]; 130 nM in [8]; 2650 nM in experiment [9]; 0.0105 nM in [10]; 750 nM in experiment [11]. Moreover, the Kd is 157 nM in experiment [3] and 16200 nM in experiment [12]. The “fold increase in affinity compared to the human IgG1 wild type control” value in [6] is approximately 3 fold. Besides, the “fold increase in affinity compared to mepolizumab” value in [7] is approximately 13 fold.
